Reference: article PMC7349027

Legend:
Experiment in all cases: non-reducing SDS-PAGE with Western blot
[1] = molecular target: soluble truncated gp120 from the CRF02_AG isolate (Sgp120t-AG) (HIV-1 clade CRF02_AG)
[2] = molecular target: truncated gp120 from the HIV-1 clade B isolate (gp120t-B) (HIV-1 clade B)
[3] = molecular target: truncated gp120 from the HIV-1 clade C isolate (gp120t-C) (HIV-1 clade C)
[4] = molecular target: truncated gp120 from the HIV-1 clade J isolate (gp120t-J) (HIV-1 clade J)

soluble truncated gp120 from the CRF02_AG isolate (Sgp120t-AG) (domain or fragment)
stoichiometry N [1]: 2

truncated gp120 from the HIV-1 clade B isolate (gp120t-B) (domain or fragment)
stoichiometry N [2]: 2

truncated gp120 from the HIV-1 clade C isolate (gp120t-C) (domain or fragment)
stoichiometry N [3]: 2

truncated gp120 from the HIV-1 clade J isolate (gp120t-J) (domain or fragment)
stoichiometry N [4]: 2
